Measurements: the supplement of paper PMC9170038

System: MS2 coat protein
Assay: apparent KD of MS2 coat protein; designed switch direction (-1 OFF switch, 1 ON switch): 1; higher = weaker reporter binding
Summary of the method: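 For each design, the apparent KD is the median over clusters of curves fitted to normalised cluster fluorescence. Clusters held RNA switches with common flanks, transcribed on Illumina chips by stalled E. coli RNA polymerase. These were titrated with SNAP-549-labelled MS2 coat protein, doubling from 0.7 or 1.5 nM to 3 µM, without input, with 200 uM small-molecule ligand, or with an oligonucleotide input.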

[1] = Eterna round: R95, input ligand: FMN 200 uM
[2] = Eterna round: R95, input ligand: microRNA oligo, concentration not stated
[3] = Eterna round: R95, input ligand: none
[4] = input ligand: microRNA oligo, concentration not stated

Row | Sequence | apparent KD of MS2 coat protein [1] [nM] | apparent KD of MS2 coat protein [2] [nM] | apparent KD of MS2 coat protein [3] [nM] | apparent KD of MS2 coat protein [4] [nM] | apparent KD of MS2 coat protein (input ligand: FMN 200 uM) [nM] | apparent KD of MS2 coat protein (input ligand: none) [nM]
1 | CAAGCUUGGGUCGUCCCGCUCGUCUACAAACAUGAGGAUCACCCAUGUAUGCUCUUCGCAUCAAUUCUAUCUCUUGG [Quxeteor] (puzzle: Sensor for hsa-mir-208a) | 51.5 | 51.3 | 54.1 | – | – | –
2 | GACAAUCUAUCUGAGGAUAUCAUGAAAAAAACAUGAGGAUCACCCAUGUGCAGGAAAACUGCAUAUGAGAAGGCAGAUAGAUUGA [salish99_SS2_r3_009] (puzzle: Same State 2) | 19.7 | 155 | 1190 | – | – | –
3 | GAGUGGUGGAGAGGAUAUGCAUUGUUAUUCACUGUAGAAGGUUCUAACAUGAGGAUCACCCAUGUAGGACUAUUCCUGUGUUUU [Parity 58 - Jieux - Same State NG 1] (Eterna round: R96, puzzle: Same State NG 1) | – | – | – | 9.4 | – | –
4 | GGAGGACAUGAGGAUCACCCAUGUGGAUGAUCGCUAGGAUAUGCGUGCAGGAAGAGUGGUGCAGAAGGAGUGGGAU [JR_SS1_Sub048] (puzzle: Same State 1) | – | 348 | – | – | – | –
5 | CCAGCUACUCACAUGAGGAUCACCCAUGUCUAGGAUAUAGUAGAGGAUAUUGGCGGAUGGAAGACCGAGAAGGCUACCUCCUGA [Eternabot solution 49] (Eterna round: R96, puzzle: Same State NG 3) | – | – | – | 14.4 | 17.9 | 18.3
6 | GGUAGGUUACUACCAAACAUGAGGAUCACCCAUGUUGAUGGGAAGGAUAUGGUACCUUUUAGGUACCAGAAGGUCUACUCGAUC [NGss mod of JL's mod of Fisker 3] (Eterna round: R96, puzzle: Same State NG 3) | – | – | – | 106 | 111 | 148
7 | UUAAGCCACGGGCAGGAUAUGUAUUAAAAUACAUGAGGAUCACCCAUGUGCAGGUGUAACACCUGGCAGAAGGGCCAAUCGCGGC [Soondi - 4] (puzzle: Same State 2) | 29.2 | 149 | 171 | – | – | –
8 | GAGGGACAGACCAACAUGAGGAUCACCCAUGUCCUCGCAGGUCAGGAUAUUAUUAGGAUCACCAGUGAGAAGGGACGGUGAACC (Eterna round: R96, puzzle: Same State NG 3) | – | – | – | 398 | 755 | 564
9 | AACAUGUGGUGUUACAUGAGGAUCACCCAUGUGGCAAAAGCUGAGGAUAUCAUUAAACCCAUGAAUGAGAAGGUAGGAUCACAA [AK SSNG3-V2-20] (Eterna round: R96, puzzle: Same State NG 3) | – | – | – | 124 | 85.2 | 127
10 | AUUUUUAAUGCAGGAUAUGAUUAACAUGAGGAUCACCCAUGUGGUGUUGUGAGUAAGGAGAGUGAUCAGAAGGGCAGUUUUUUU [JMF's solution 79] (Eterna round: R96, puzzle: Same State NG 2) | – | – | – | 315 | 543 | 499
11 | GGUCGGACUACAUGAGGAUCACCCAUGUGUGCGGAAACGCCAUAGGAUAUCUGUCCGAAAAGGUCAGAGAAGGGUGAACCGACC [Fiskers NG3ss - 67] (Eterna round: R96, puzzle: Same State NG 3) | – | – | – | 30.1 | 882 | 73.9
12 | GUAGCAUACCGAGGAUAUUCAUAUAAUAUUACAUGAGGAUCACCCAUGUAUAGGCGAAAGCCUUGGGAGAAGGCGGAAUGCUAC [Xeonanis - 20 Mod61] (Eterna round: R96, puzzle: Same State NG 2) | – | – | – | 24.9 | 13.2 | 28.6
13 | UAUCUCAUGUAAGGAUAUGCAGCCGUUUCGGCUGCAGAAGGUACUAUAAUACAUGAGGAUCACCCAUGUCUCUAUUAUUUAGUU [JL SSNG1 1.45] (Eterna round: R96, puzzle: Same State NG 1) | – | – | – | 45.7 | 57.6 | 63.8
14 | UGUUGUAUUACAGGAUAUCUAUGUUUUUUAUUUAGAGAAGGGUAUUCACAUGAGGAUCACCCAUGUAUAUACGAGGAAGUUGUG [JMF's solution 57] (Eterna round: R96, puzzle: Same State NG 1) | – | – | – | 40.4 | – | –
15 | GGGAGAGUUACAGGAUAUGGUGAGGAUUACCCACUAGAAGGGUAAACAUGUGAAUCGGACAUGAGGAUCACCCAUGUUGGGCGU (Eterna round: R96, puzzle: Same State NG 1) | – | – | – | 160 | 162 | 203
16 | CCAGGACAUGAGGAUCACCCAUGUGCUUAAUGUGGAGAAUCUCAGGAUAUCAUGAGGAUUACCCAUGAGAAGGGAGAUCCGAGG (Eterna round: R96, puzzle: Same State NG 3) | – | – | – | 300 | 437 | 483
17 | GGAGCCGGCCUAGGAUAUUUCAUAUAUUAACAUGAGGAUCACCCAUGUAGGCCAGAAGGCCUUGGGAAGAAGGAGGUCGGCUCC [Loop Effect - U25,U27,U28] (Eterna round: R96, puzzle: Same State NG 2) | – | – | – | 49.8 | 15.7 | 79.6
18 | GAUUAACAUGAGGAUCACCCAUGUCGUUAUAUGGGAGGAUAUACGUGGACCGUAGUCCGCGUAGAAGGCCUAAUUG [Mat - Same State 1 - Mod of JL - D23] (puzzle: Same State 1) | – | 188 | – | – | – | –
19 | UCUUGGUUUUUGCUCGUUUUUUGUGUUGAACAUGAGGAUCACCCAUGUAUUAUACGGUCCGGUUUAAUAAUAAUCCG [JMF 81] (puzzle: Sensor for hsa-mir-208a) | 24.2 | 14.6 | 27.3 | – | – | –
20 | GGUUUAGUCAAGUGCCGUUGCACUUGAAAACAUGAGGAUCACCCAUGUUUGGGACAAGCUUUGCUCCUCGUCUUUCC [Tiatmaraen] (puzzle: Sensor for hsa-mir-208a) | 477 | 66.3 | 591 | – | – | –
21 | UCUUGGUUUUUGCUCGUUUUUUGUGUUGAACAUGAGGAUCACCCAUGUAUUAUACGGUCCGGUUUAGUAGUGGUCCG [JMF 79] (puzzle: Sensor for hsa-mir-208a) | 28.2 | 16 | 31.1 | – | – | –
22 | GGCUGUUAAUUAGGAUAUGGUCACAUGAGGAUCACCCAUGUAACGAUGAUACGAUGUGGUCAAGACUAGAAGGGAUCGCUAACA [SameState NG2 #71] (Eterna round: R96, puzzle: Same State NG 2) | – | – | – | 128 | 172 | 105
23 | ACGCAGCUGGGCAAGGAUAUCGGUGGUAAAACAUGAGGAUCACCCAUGUCCGAAGCUCGGACUUCCGAGAAGGUGCCCGGCUGCG [Soinraesar Omei Mod 8] (puzzle: Same State 2) | 20.1 | 119 | 238 | – | – | –
24 | GCAACAGGGUGAGGAUAUCUAUGGACCGACCAUAGAGAAGGCACUGGAAACACAUGAGGAUCACCCAUGUGCCAAAGAACAGUA [Eternabot solution 9] (Eterna round: R96, puzzle: Same State NG 1) | – | – | – | 22.4 | 17.5 | 28.4
25 | UUGUUUAGAAAUUAACAUGAGGAUCACCCAUGUAUUGGAUCAGAGGAUAUGCAUGUUUGAUUGUAGCAGAAGGCUGAUUGUUGA [JR_SSNG3_Sub029] (Eterna round: R96, puzzle: Same State NG 3) | – | – | – | 37.3 | – | –
26 | AGGCAAGCUUUUUGCUGGUAUGGAGGAUAACAUGAGGAUCACCCAUGUAUUGGAGGUGUUGAAGAUUUGAGAAAGAA [JR_SHM208A_Sub005] (puzzle: Sensor for hsa-mir-208a) | 118 | 149 | 139 | – | – | –
27 | GAGCCAGUCCGAGGAUAUUCGUAGUAACACAUGAGGAUCACCCAUGUGGGCUCAGAAGAGCCCUUGGAGAAGGCGGGCUGGCUC [SS-NG2-LRO19] (Eterna round: R96, puzzle: Same State NG 2) | – | – | – | 9.15 | 7.41 | 12.4
28 | UGUUGUAUUACAGGAUAUCUAGUAUUUGUAUUUAGAGAAGGGUAUUCACAUGAGGAUCACCCAUGUAUAUACGAGGAAGUUGUG [JMF's solution 42] (Eterna round: R96, puzzle: Same State NG 1) | – | – | – | 35.4 | 53.7 | 48.3
